Measurements reported in publication PMC7617061.

Molecular target: U1-C zinc finger (UniProt P09234)
Experiment: NMR titration
Details: pseudouridine at U1 strand positions 5 and 6

Sequence of UniProt P09234 (P09234 1-61): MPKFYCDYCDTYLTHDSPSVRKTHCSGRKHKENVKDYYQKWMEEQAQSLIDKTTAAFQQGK

AUACUUACCUG / GGAGUAAGUCU [U1 snRNA 5'-end / SMN2 E7 5'-SS RNA duplex]
binding signal (fold affinity increase vs no SMN-C5): 3
